Three molecules from patent publication US20170022275A1 (Dana-Farber, published 2017) can be followed below.

Experiment [1] addresses MICA antigen (UniGene Hs.130838) with C-terminal BirA tag (human) (UniProt Q29983). Put plainly: flow cytometry of MICA-coated streptavidin beads, Alexa488 anti-human IgG; antibody 1.2 µg/ml; uncoated SA bead: 2.16.
For experiment [2] the target is unchanged. In words: flow cytometry of MICA-coated streptavidin beads, Alexa488 anti-human IgG; antibody 30 µg/ml; uncoated SA bead: 3.53.
Experiment [3] shares this target. In words: flow cytometry of MICA-coated streptavidin beads, Alexa488 anti-human IgG; antibody 0.24 µg/ml; uncoated SA bead: 2.3.
Experiment [4] has the same target. In words: flow cytometry of MICA-coated streptavidin beads, Alexa488 anti-human IgG; antibody 0.05 µg/ml; uncoated SA bead: 2.18.
Experiment [5] shares this target. In words: flow cytometry of MICA-coated streptavidin beads, Alexa488 anti-human IgG; antibody 6 µg/ml; uncoated SA bead: 2.63.
The target is the same in experiment [6]. Put plainly: flow cytometry of MICA-coated streptavidin beads, antibody directly PE-conjugated; 0.002 µg/ml; uncoated SA bead: 2.16.
Experiment [7] has the same target. In words: flow cytometry of MICA-coated streptavidin beads, antibody directly PE-conjugated; legend box says 0.024ug, the label in the panel says 0.01 µg/ml (they do not agree); uncoated SA bead: 1.95.
Experiment [8] has the same target. In words: flow cytometry of MICA-coated streptavidin beads, antibody directly PE-conjugated; legend box says 0.001ug, the label in the panel says 0.24 µg/ml (they do not agree); uncoated SA bead: 1.95.
Experiment [9] addresses MICA on the surface of cells (human) (UniProt Q29983). Put plainly: flow cytometry on B16 melanoma cells transduced with human MICA, antibody 10 µg/ml; B16 MICA unstained 11.4; same antibody on untransduced B16: 7.49 (B16 unstained 7.12).
In experiment [10] the target is MICA antigen (UniGene Hs.130838) with C-terminal BirA tag (human) (UniProt Q29983). Put plainly: flow cytometry of MICA-coated streptavidin beads, antibody directly PE-conjugated; legend box says 0.005ug, the label in the panel says 1.2 µg/ml (they do not agree); uncoated SA bead: 1.98.
Experiment [11] shares this target. Put plainly: flow cytometry of MICA-coated streptavidin beads, antibody directly PE-conjugated; legend box says 0.12ug, the label in the panel says 0.05 µg/ml (they do not agree); uncoated SA bead: 1.95.
For a further experiment, the target named is T1, MICA*009 (human, UniProt Q29983 26-307).
T1 construct: also called MICA allele 009
T1 chain: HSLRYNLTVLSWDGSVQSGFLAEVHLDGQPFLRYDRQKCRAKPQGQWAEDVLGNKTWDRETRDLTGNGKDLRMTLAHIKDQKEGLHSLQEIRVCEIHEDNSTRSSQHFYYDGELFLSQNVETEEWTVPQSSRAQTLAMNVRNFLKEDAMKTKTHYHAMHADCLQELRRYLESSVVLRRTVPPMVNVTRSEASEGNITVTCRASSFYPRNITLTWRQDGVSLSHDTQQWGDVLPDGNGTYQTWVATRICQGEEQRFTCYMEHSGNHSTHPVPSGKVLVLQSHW
Put plainly: array of overlapping 20-aa peptides of MICA*009 extracellular domains.

Chain of MICA antigen (UniGene Hs.130838) with C-terminal BirA tag (human) (Q29983 other isoform, or with tags, fused parts or gaps limits assumed): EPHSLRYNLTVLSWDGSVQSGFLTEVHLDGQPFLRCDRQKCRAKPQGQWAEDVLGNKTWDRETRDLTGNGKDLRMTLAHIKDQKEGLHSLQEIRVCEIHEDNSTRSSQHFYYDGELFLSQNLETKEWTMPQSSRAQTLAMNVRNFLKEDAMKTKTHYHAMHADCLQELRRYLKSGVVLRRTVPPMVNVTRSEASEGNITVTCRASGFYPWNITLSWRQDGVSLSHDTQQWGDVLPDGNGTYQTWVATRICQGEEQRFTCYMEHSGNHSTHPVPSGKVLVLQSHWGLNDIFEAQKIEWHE
Chain of MICA on the surface of cells (human) (Q29983 24-383): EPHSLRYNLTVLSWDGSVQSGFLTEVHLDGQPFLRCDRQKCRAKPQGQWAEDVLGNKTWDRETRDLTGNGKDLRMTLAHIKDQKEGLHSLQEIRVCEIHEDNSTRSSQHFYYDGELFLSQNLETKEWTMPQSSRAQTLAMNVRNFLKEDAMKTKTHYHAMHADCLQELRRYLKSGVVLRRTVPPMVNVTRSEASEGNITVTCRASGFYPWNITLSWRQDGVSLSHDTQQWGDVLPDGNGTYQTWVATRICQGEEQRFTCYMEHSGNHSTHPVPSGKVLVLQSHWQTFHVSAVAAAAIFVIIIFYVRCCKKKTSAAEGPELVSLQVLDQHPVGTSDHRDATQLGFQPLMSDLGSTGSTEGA

In the case of “negative control antibody (TTCF specific)”, the unnamed fluorescence number (FL1-H) is 2.27 in experiment [1]; 3.43 in [2]; 2.28 in experiment [3]; 2.23 in experiment [4]; 2.62 in experiment [5].

Regarding “commercially available anti-MICA/MICB monoclonal antibody (clone 6D4), BioLegend”, the unnamed fluorescence number (FL2-H) in experiment [6] was found to be 4.31; in experiment [7], 194; in experiment [8] it was 16.8; in experiment [10], 65.9; in experiment [11], 391. For the same molecule, the Geom. Mean:FL1-H in experiment [9] was found to be 188.

B1: CM33322 Ab4 (antibody, V domains shown)
VH: QVQLQESGPGLVRPSGTLSLTCAVSGGSIDYSNWWGWVRQVPGKGLEWIGEVYHTGATHYNPSLERRCIISVDKSNNQVSLQLTSVTAADSAIYYCARERGTHCDGNRCYYVFFDHWGQGIPVTVSS
VL: DIVMTQTPLSSPVTLGQPASISCRSSESLVHWDGTTYLSWFHQRPGQPPRLLIYKVSNRFSGVPDRFSGSGAGTDFTLKISRVEADDVGIYYCMQATQFPRTFGQGTKVEIKR
notes: also called anti-MICA antibody ID-11; antibody ID 11
On to B1, for which the binding result in the experiment with MICA*009 was “binds”.
